Assay results published in publication PMC2819637.
“And” between values parts separate entries of the source, which are not always exact repeats. Identical values can stand only once. Like-named read-outs stand apart in the source and are kept apart here.

Tests used:
[1] = biological target: PKR (Homo sapiens) (UniProt P19525); settings: cited from earlier work
[2] = biological target: PKR (Homo sapiens) (UniProt P19525); experiment: analytical ultracentrifugation; settings: cited from earlier work
[3] = biological target: phosphorylated monomeric PKR (pPKRm) (human) (UniProt P19525); experiment: AUC

| Substance | Kd [1] | Kd [2] [µM] | Kd [3] [µM] |
| --- | --- | --- | --- |
| PKR (from UniProt P19525) | 500 µM and 450 µM | 0.95 | – |
| phosphorylated monomeric PKR (pPKRm) (from UniProt P19525 1-551) (enzyme) | – | – | 473 |
